Data from patent US20050182242A1, “Global analysis of protein activities using proteome chips” (priority 2001, published 2005).

B1: APA2: yeast GST-HisX6 fusion protein on proteome chip (protein, UniProt P22108 1-325, looked up)
Diadenosine …: MIEENLKQKIHDKFVAAKKNGHLKVTHAESKKLKDPQTTTQYWVTFAPSLALKPDANKNSDSKAEDPFANPDEELVVTEDLNGDGEYKLLLNKFPVVPEHSLLVTSEFKDQRSALTPSDLMTAYNVLCSLQGDKDDDVTCERYLVFYNCGPHSGSSQDHKHLQIMQMPEKFIPFQDVLCNGKDHFLPTFNAEPLQDDKVSFAHFVLPLPESSDQVDEDLLAMCYVSLMQRALTFFQDWTNESPELTKSYNVLLTKKWICVVPRSHAKSGPPLMLNINSTGYCGMILVKDREKLENLTEDPHLVDKSLLQCGFPNTAGQKPTEYHY
modifications: GST-His6 fusion tag
notes: yeast GST-HisX6 fusion protein on proteome chip
B2: GPA2: yeast GST-HisX6 fusion protein on proteome chip (protein, UniProt P10823 2-449, looked up)
Guanine nucleotide-binding …: GLCASSEKNGSTPDTQTASAGSDNVGKAKVPPKQEPQKTVRTVNTANQQEKQQQRQQQPSPHNVKDRKEQNGSINNAISPTATANTSGSQQINIDSALRDRSSNVAAQPSLSDASSGSNDKELKVLLLGAGESGKSTVLQQLKILHQNGFSEQEIKEYIPLIYQNLLEIGRNLIQARTRFNVNLEPECELTQQDLSRTMSYEMPNNYTGQFPEDIAGVISTLWALPSTQDLVNGPNASKFYLMDSTPYFMENFTRITSPNYRPTQQDILRSRQMTSGIFDTVIDMGSDIKMHIYDVGGQRSERKKWIHCFDNVTLVIFCVSLSEYDQTLMEDKNQNRFQESLVLFDNIVNSRWFARTSVVLFLNKIDLFAEKLSKVPMENYFPDYTGGSDINKAAKYILWRFVQLNRANLSIYPHVTQATDTSNIRLVFAAIKETILENTLKDSGVLQ
modifications: GST-His6 tag
notes: as for B1
B3: SGA1: yeast GST-HisX6 fusion protein on proteome chip (protein, UniProt P08019 1-549, looked up)
Glucoamylase, intracellular …: MARQKMFYNKLLGMLSVGFGFAWALENITIYEFDFGKGILDQSYGGVFSNNGPSQVQLRDAVLMNGTVVYDSNGAWDSSALEEWLQGQKKVSIEKIFENIGPSAVYPSISPGVVIASPSQTHPDYFYQWIRDSALTINSIVSHSAGPAIETLLQYLNVSFHLQRSNNTLGAGIGYTNDTVALGDPKWNVDNTAFTEDWGRPQNDGPALRSIAILKIIDYIKQSGTDLGAKYPFQSTADIFDDIVRWDLRFIIDHWNSSGFDLWEEVNGMHFFTLLVQLSAVDKSLSYFNASERSSPFVEELRQTRRDISKFLVDPANGFINGKYNYIVGTPMIADTLRSGLDISTLLAANTVHDAPSASHLPFDINDPAVLNTLHHLMLHMRSIYPINDSSKNATGIALGRYPEDVYDGYGFGEGNPWVLATCTASTTLYQLIYRHISEQHDLVVPMNNDCSNAFWSELVFSNLTTLGNDEGYLILEFNTPAFNQTIQKIFQLADSFLVKLKAHVGTDGELSEQFNKYTGFMQGAQHLTWSYTSFWDAYQIRQEVLQSL
modifications: GST-HisX6 tag
notes: as for B1
B4: VMA13: yeast GST-HisX6 fusion protein on proteome chip (protein, UniProt P41807 2-478, looked up)
V-type proton ATPase subunit H: GATKILMDSTHFNEIRSIIRSRSVAWDALARSEELSEIDASTAKALESILVKKNIGDGLSSSNNAHSGFKVNGKTLIPLIHLLSTSDNEDCKKSVQNLIAELLSSDKYGDDTVKFFQEDPKQLEQLFDVSLKGDFQTVLISGFNVVSLLVQNGLHNVKLVEKLLKNNNLINILQNIEQMDTCYVCIRLLQELAVIPEYRDVIWLHEKKFMPTLFKILQRATDSQLATRIVATNSNHLGIQLQYHSLLLIWLLTFNPVFANELVQKYLSDFLDLLKLVKITIKEKVSRLCISIILQCCSTRVKQHKKVIKQLLLLGNALPTVQSLSERKYSDEELRQDISNLKEILENEYQELTSFDEYVAELDSKLLCWSPPHVDNGFWSDNIDEFKKDNYKIFRQLIELLQAKVRNGDVNAKQEKIIIQVALNDITHVVELLPESIDVLDKTGGKADIMELLNHSDSRVKYEALKATQAIIGYTFK
modifications: GST-His6 tag
notes: as for B1
B5: RPH1: yeast GST-HisX6 fusion protein on proteome chip (protein, UniProt P39956 1-796, looked up)
DNA damage-responsive …: MTKLIAPSEIVGGVPVFKPTYEQFEDFYAYCKAINKYGMKSGVVKVIPPKEWKDKLDLPYSAETLQKIKIKSPIQQHISGNKGLFMVQNVEKNKTYNIIQWKDLSKDYVPPEDPKARRNSRKGSVSKSTKLKLKNFESSFNIDDFEQFRTEYTIDLSDFQNTERLKFLEEYYWKTLNFTTPMYGADTPGSIFPEGLNVWNVAKLPNILDHMETKVPGVNDSYLYAGLWKASFSWHLEDQDLYSINYIHFGAPKQWYSIPQEDRFKFYKFMQEQFPEEAKNCPEFLRHKMFLASPKLLQENGIRCNEIVHHEGEFMITYPYGYHAGFNYGYNLAESVNFALEEWLPIGKKAGKCHCISDSVEIDVKKLAKSWRDNNKESKGTPPLNQLPNPAMPLLHRPTLKEMESSSLRSTSPDVGHFSNFKSKSSGVSSPLLSRMKDYSNIVEPTLEDPTLKLKRISSFQEQPLNKLLKRETSQTAMLTDHEDNIVAMSLTSMANSAASSPRLPLSRLNSSNELSNAQPLLDMTNNTLAFPRPNGPSGLNPLLYISNKNISGISHSAPHSPVNPNISLIKRVKSPNIVTLNISRESSRSPIALNYEARQQHSQQHSFSTPSTVSNLSTSVLGPLSDTNDIKTPHPERPNHKTANRILKKESPVETSKSNLILSKVASTRQEDSFTSRNDDLDKEQGSSPLNSKFAPEEIVLSGKNKIYICKECQRKFSSGHHLTRHKKSVHSGEKPHSCPKCGKRFKRRDHVLQHLNKKIPCISNETTVDAPIMNPTVQPQDGKAAINQQSTPLN
modifications: GST-His6 tag
notes: as for B1
B6: RGD1: yeast GST-HisX6 fusion protein on proteome chip (protein, UniProt P38339 1-666, looked up)
RHO GTPase-activating protein …: MEETAKKPASATVSAKSSHDGGTDDLAHLFSTPEIKKVLNSDVAINALLSRLKQSLLTCEEFMKFIRKKYAFEEEHVQELSKQYKHFFNIQGSTNSSLKKMIHEVLGFDGKMAQVKQSYITALQKMYSEISSLLLTMTKLRKSVKENSKRLEKDVSDAIHSAEKAQSRYNSLCQDWDKLRMTDPTKTKLTLRGSKTTKEQEEELLRKIDNADLEYKQKVDHSNSLRNTFITKERPRIVQELKDLILEIDTAMTIQLQKYTIWTENLVLNTGVTISPLDSTKSMKSFAGSVSNERDLYSFLNKYNQTGKHSLLINKNLIPVSYKKHPSMNHGQKNKSPPKFAVDPSRNSIPKRMISTHNESPFLSSSSNTAAVPNANLNSATPSLNTNKQLPPTMASSISSTSNAAGAMSPSSSIVTSDTTSSITKTLDPGNNSPQIPEELINSLDSDRPISHIQTNNNMPPGVQKNFKTFGVPLESLIEFEQDMVPAIVRQCIYVIDKFGLDQEGIYRKSANVLDVSKLKEEIDKDPANISMILPSKPHSDSDIYLVGSLLKTFFASLPDSVLPKALSSEIKVCLQIEDPTTRKNFMHGLIYNLPDAQYWTLRALVFHLKRVLAHEAQNRMNLRALCIIWGPTIAPANPDDANDVNFQIMAMEVLLEVSDQAFEPE
modifications: GST-His6 tag
notes: as for B1
B7: MUM2: yeast GST-HisX6 fusion protein on proteome chip (protein, UniProt P38236 1-366, looked up)
Protein MUM2: MNYMAYDYDPQHSLETSFNNLAFHPHQQSQQQALYESGERNDARPGLMNTLGQASKMNNSMLPQGSSASPLTGQHSLNSTTNFNMPPSMNTYNYQNVPQASMRNTLNHNNIMNGATANDYWLDPMNNMTNNKDTNGNPNDSMSSMSNMTAKTSINSTAFKNSFVPFNHVTALSMNNVNSNEMNSNKDDRMEALEVELQIKESQIESLENEIQRLKKIFNEGLNYKQNEHKYEKENCHIPQTFELPASLEVIFRKLSSSLHAKEKELAETKENLESILTALALNPTNSVTKYGRYDAESIAHKMVVRLENLTNENKEMAKMLAYGRSKETQIELQLAKKENLELREKIASLEAHLASKESSKEDVAN
modifications: GST-His6 fusion tag
notes: as for B1
B8: SAS3: yeast GST-HisX6 fusion protein on proteome chip (protein, UniProt P34218 1-831, looked up)
Histone acetyltransferase SAS3: MSLTANDESPKPKKNALLKNLEIDDLIHSQFVRSDTNGHRTTRRLFNSDASISHRIRGSVRSDKGLNKIKKGLISQQSKLASENSSQNIVNRDNKMGAVSFPIIEPNIEVSEELKVRIKYDSIKFFNFERLISKSSVIAPLVNKNITSSGPLIGFQRRVNRLKQTWDLATENMEYPYSSDNTPFRDNDSWQWYVPYGGTIKKMKDFSTKRTLPTWEDKIKFLTFLENSKSATYINGNVSLCNHNETDQENEDRKKRKGKVPRIKNKVWFSQIEYIVLRNYEIKPWYTSPFPEHINQNKMVFICEFCLKYMTSRYTFYRHQLKCLTFKPPGNEIYRDGKLSVWEIDGRENVLYCQNLCLLAKCFINSKTLYYDVEPFIFYILTEREDTENHPYQNAAKFHFVGYFSKEKFNSNDYNLSCILTLPIYQRKGYGQFLMEFSYLLSRKESKFGTPEKPLSDLGLLTYRTFWKIKCAEVLLKLRDSARRRSNNKNEDTFQQVSLNDIAKLTGMIPTDVVFGLEQLQVLYRHKTRSLSSLDDFNYIIKIDSWNRIENIYKTWSSKNYPRVKYDKLLWEPIILGPSFGINGMMNLEPTALADEALTNETMAPVISNNTHIENYNNSRAHNKRRRRRRRSSEHKTSKLHVNNIIEPEVPATDFFEDTVSSLTEYMCDYKNTNNDRLIYQAEKRVLESIHDRKGIPRSKFSTETHWELCFTIKNSETPLGNHAARRNDTGISSLEQDEVENDVDTELYVGENAKEDEDEDEDFTLDDDIEDEQISEENDEEEDTYEEDSDDDEDGKRKGQEQDENDIESHIRKERVRKRRKITLIEDDEE
modifications: GST-His6 tag
notes: as for B1

Test system: PI(3)P liposomes
Assay: Yeast proteome chip probed with PI(3)P liposomes
Settings: liposome binding signal on yeast proteome chip, Cy3-streptavidin detection

Molecule | PI(3)P
B1 | 22.50
B2 | −50.50
B3 | 16.50
B4 | 11.50
B5 | 6.00
B6 | 6.00
B7 | 81.50
B8 | 2.00

Test system: PI(4,5)P2 liposomes
Assay: Yeast proteome chip probed with PI(4,5)P2 liposomes
Settings: liposome binding signal on yeast proteome chip, Cy3-streptavidin detection

Molecule | PI(4, 5)P2
B1 | 34.84
B2 | 44.85
B3 | 6.75
B4 | 34.40
B5 | 18.73
B6 | 55.31
B7 | 38.76
B8 | 17.85

Test system: PI(3,4)P2 liposomes
Assay: Yeast proteome chip probed with PI(3,4)P2 liposomes
Settings: liposome binding signal on yeast proteome chip, Cy3-streptavidin detection

Molecule | PI(3, 4)P2
B1 | 31.40
B2 | 119.93
B3 | 60.59
B4 | 44.27
B5 | 90.73
B6 | 54.31
B7 | 49.29
B8 | 55.57

Test system: PI(4)P liposomes
Assay: Yeast proteome chip probed with PI(4)P liposomes
Settings: liposome binding signal on yeast proteome chip, Cy3-streptavidin detection

Molecule | PI(4)P
B1 | 43.98
B2 | 87.31
B3 | 41.15
B4 | 16.55
B5 | 66.19
B6 | 127.60
B7 | 90.15
B8 | 16.55

Test system: PI(3,4,5)P3 liposomes
Assay: Yeast proteome chip probed with PI(3,4,5)P3 liposomes
Settings: liposome binding signal on yeast proteome chip, Cy3-streptavidin detection

Molecule | PI(3, 4, 5)P3
B1 | 40.05
B2 | 13.05
B3 | 26.55
B4 | 28.12
B5 | 9.90
B6 | 19.35
B7 | 63.34
B8 | 18.68

Test system: phosphatidylcholine (PC) liposomes
Assay: Yeast proteome chip probed with PC liposomes
Settings: liposome binding signal on yeast proteome chip, Cy3-streptavidin detection
Summary of the method: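 Yeast proteome chips incubated 1 h at RT with sonicated liposomes of PC containing 1% (w/w) biotin-DHPE, plus 5% (w/w) of the indicated phosphoinositide where applicable. After PBS washes, bound liposomes detected with Cy3- or Cy5-streptavidin (>30 min, RT, dark) and fluorescence scanned.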

Molecule | PC
B1 | 42.26
B2 | 39.33
B3 | 52.83
B4 | 45.78
B5 | 56.93
B6 | 54.59
B7 | 46.66
B8 | 54.00
